# From article PMC10972748 (2024)
# Numbering of substitutions follows the chain as printed.
# B1: His-Halo-tagged cGAS single point mutant of Glu515 (natural protein)
# chain: MQPWHGKAMQRASEAGATAPKASARNARGAPMDPTESPAAPEAALPKAGKFGPARKSGSRQKKSAPDTQERPPVRATGARAKKAPQRAQDTQPSDATSAPGAEGLEPPAAREPALSRAGSCRQRGARCSTKPRPPPGPWDVPSPGLPVSAPILVRRDAAPGASKLRAVLEKLKLSRDDISTAAGMVKGVVDHLLLRLKCDSAFRGVGLLNTGSYYEHVKISAPNEFDVMFKLEVPRIQLEEYSNTRAYYFVKFKRNPKENPLSQFLEGEILSASKMLSKFRKIIKEEINDIKDTDVIMKRKRGGSPAVTLLISEKISVDITLALESKSSWPASTQEGLRIQNWLSAKVRKQLRLKPFYLVPKHAKEGNGFQEETWRLSFSHIEKEILNNHGKSKTCCENKEEKCCRKDCLKLMKYLLEQLKERFKDKKHLDKFSSYHVKTAFFHVCTQNPQDSQWDRKDLGLCFDNCVTYFLQCLRTEKLENYFIPEFNLFSSNLIDKRSKEFLTKQIEYERNNAFPVFDEF
# B2: His-Halo-tagged cGAS single point mutant of Asp465 (natural protein)
# chain: B1 chain with D465A, A515E
# B3: His-Halo-tagged cGAS single point mutant of Arg512 (natural protein)
# chain: B1 chain with R512A, A515E
# Target: SPSB3–ELOBC heterotrimeric complex (SPSB3 amino acids 83–326 with elongin B and elongin C) (human | , UniProt Q6PJ21 83-326; Q15370 1-118; Q15369 1-112)
# Assay: BLI
row,Kd [µM],Binder
1,0.453,B1
2,0.818,B2
3,0.957,B3
